This passage reports Kd and IC50 results from the Immune Epitope Database (IEDB).

Usually Kd stands for a measure of binding affinity in units of concentration. One may read the IC50 as the point on the concentration scale where inhibition reaches its midpoint.

For experiment [1], the target named is HLA-B*35:01. Nature of the experiment: IEDB peptide-MHC binding, purified MHC/competitive/fluorescence; filed as Kd, often an IC50 or EC50 that approximates it; ≥ and ≤ were set here for values at or beyond the usual limits of such assays. As to conditions: source organism: Mammarenavirus machupoense.
The target of experiment [2] is HLA-A*26:01. Nature of the experiment: IEDB peptide-MHC binding, purified MHC/direct/fluorescence; filed as Kd, often an IC50 or EC50 that approximates it; ≥ and ≤ were set here for values at or beyond the usual limits of such assays. As to conditions: source organism: Mammarenavirus juninense.
For experiment [3], the target named is HLA-C*12:03. The description is as above. The settings on record: source organism: Mammarenavirus machupoense.
Experiment [4] has as its target HLA-B*51:01. The experiment is described as above.
Experiment [5] has as its target HLA-B*27:03. Nature of the experiment: IEDB peptide-MHC binding, purified MHC/competitive/fluorescence; filed as Kd, often an IC50 or EC50 that approximates it; ≥ and ≤ were set here for values at or beyond the usual limits of such assays.
The target of experiment [6] is HLA-A*26:01. The experiment is described as above.
The target of experiment [7] is HLA-B*58:01. The description is as above. The settings on record: source organism: Orthohantavirus andesense.
Experiment [8] concerns the target HLA-A*02:01. The experiment is described as above.
Experiment [9] has as its target HLA-B*39:01. Described as above.
The target of experiment [10] is HLA-B*15:01. The description is as above.
For experiment [11], the target named is HLA-A*69:01. The experiment is described as above.
Experiment [12] has as its target HLA-B*46:01. The experiment is described as above.
In experiment [13] the target is HLA-B*18:01. The description is as above.
Experiment [14] concerns the target HLA-A*02:12. Briefly: IEDB peptide-MHC binding, purified MHC/direct/fluorescence; filed as Kd, often an IC50 or EC50 that approximates it; ≥ and ≤ were set here for values at or beyond the usual limits of such assays.
Experiment [15] addresses HLA-A*03:01. Described as above.
Experiment [16] addresses HLA-A*68:02. The experiment is described as above.
In experiment [17] the target is HLA-A*02:19. The description is as above.
The target in experiment [18] is HLA-A*02:16. The description is as above.
The target in experiment [19] is HLA-A*24:03. Described as above.
In experiment [20] the target is HLA-A*29:02. Described as above.
In experiment [21] the target is HLA-A*02:11. The experiment is described as above.
Experiment [22] has as its target HLA-A*02:03. The description is as above.
For experiment [23], the target named is HLA-B*07:02. Described as above.
Experiment [24] has as its target HLA-B*15:01. Described as above.
For experiment [25], the target named is HLA-B*51:01. Nature of the experiment: IEDB peptide-MHC binding, purified MHC/competitive/fluorescence; filed as Kd, often an IC50 or EC50 that approximates it; ≥ and ≤ were set here for values at or beyond the usual limits of such assays.
The target in experiment [26] is HLA-B*15:17. Described as above.
Experiment [27] deals with HLA-B*57:01. Described as above.
Experiment [28] deals with HLA-A*03:01. Briefly: IEDB peptide-MHC binding, purified MHC/competitive/fluorescence; ≥ and ≤ were set here for values at or beyond the usual limits of such assays. As to conditions: source organism: Sudan ebolavirus.
Experiment [29] has as its target HLA-A*11:01. The description is as above. As to conditions: source organism: Sudan ebolavirus.
Experiment [30] concerns the target HLA-A*23:01. Briefly: IEDB peptide-MHC binding, purified MHC/direct/fluorescence; filed as Kd, often an IC50 or EC50 that approximates it; ≥ and ≤ were set here for values at or beyond the usual limits of such assays.
In experiment [31] the target is HLA-B*27:05. The description is as above. As to conditions: source organism: Zaire ebolavirus.
The target of experiment [32] is HLA-A*31:01. Briefly: IEDB peptide-MHC binding, purified MHC/competitive/fluorescence; filed as Kd, often an IC50 or EC50 that approximates it; ≥ and ≤ were set here for values at or beyond the usual limits of such assays. The settings on record: source organism: Zaire ebolavirus.
Setting [33] is: source organism: Orthohantavirus andesense.
The mark [34] stands for this setting: source organism: Yersinia pestis.
The mark [35] stands for this setting: source organism: Zaire ebolavirus.
The mark [36] stands for this setting: source organism: Orthohantavirus sinnombreense.
Setting [37] is: source organism: Limestone Canyon virus.
[38] abbreviates: source organism: Burkholderia mallei.
Where [39] appears, read: source organism: Seoul virus 80-39.
Where [40] appears, read: source organism: Orthohantavirus hantanense.

On to DAMPGVLSY, for which the equilibrium dissociation constant (Kd) in experiment [1] is 0.0005 µM; in experiment [2], 0.0021 µM; in [3] it was at least 20 µM.
Consider GPAEARKVC, for which the Kd in experiment [4] (source organism: Yellow fever virus) was at least 20 µM.
Regarding NALEKALRW, the Kd in [5] (setting [33]) was at least 20 µM; in [6] (setting [33]) it was at least 20 µM; in [7], 0.0255 µM; in experiment [8] (setting [33]) it was at least 20 µM; in experiment [9] (setting [33]), at least 20 µM; in experiment [10] (setting [33]), at least 20 µM. The Kd in [11] (setting [33]), in experiment [12] (setting [33]), in [13] (setting [33]), in [14] (setting [33]), in [15] (setting [33]) and in [16] (setting [33]) was at least 20 µM throughout. Also, the Kd in experiment [17] (setting [33]), in experiment [18] (setting [33]), in experiment [19] (setting [33]), in experiment [20] (setting [33]), in experiment [21] (setting [33]) and in experiment [22] (setting [33]) was at least 20 µM throughout.
For the sequence TPFEVETRL, the results for the dissociation constant (Kd) in experiment [4] (setting [34]), in experiment [23] (setting [34]) and in experiment [24] (source organism: Yersinia pestis CA88-4125) were at least 20 µM, 0.836 µM and at least 20 µM, respectively.
DRLASTVIY: the Kd in experiment [5] (setting [35]), in [25] (setting [35]), in experiment [6] (setting [35]), in experiment [26] (setting [35]), in [8] (setting [35]) and in experiment [9] (setting [35]) was at least 20 µM each time. Moreover, the Kd in [10] (setting [35]), in experiment [11] (setting [35]), in experiment [27] (setting [35]), in [12] (setting [35]), in experiment [13] (setting [35]) and in experiment [14] (setting [35]) was at least 20 µM in each case. Further, the Kd in experiment [15] (setting [35]), in [30] (setting [35]), in [17] (setting [35]), in experiment [18] (setting [35]), in experiment [19] (setting [35]) and in experiment [20] (setting [35]) was at least 20 µM in each case. Further, the Kd is at least 20 µM in experiment [21] (setting [35]), at least 20 µM in experiment [22] (setting [35]) and 8.77 µM in [31]. The IC50 in experiment [28] is at least 257 µM; in experiment [29] it was at least 120 µM.
As for LVTARQKLK, the Kd in experiment [5] (setting [36]), in experiment [25] (setting [36]), in experiment [6] (setting [36]), in experiment [26] (setting [36]), in experiment [8] (setting [36]) and in [9] (setting [36]) was at least 20 µM in each case. The Kd in experiment [10] (setting [36]), in [11] (setting [36]), in experiment [27] (setting [36]), in experiment [12] (setting [36]), in experiment [13] (setting [36]) and in experiment [14] (setting [37]) was at least 20 µM each time. Moreover, the Kd in experiment [15] (setting [33]) was 9 µM; in experiment [16] (setting [37]) it was at least 20 µM; in [30] (setting [37]) it was at least 20 µM; in experiment [17] (setting [37]) it was at least 20 µM; in [18] (setting [37]), at least 20 µM; in [19] (setting [37]) it was at least 20 µM. In addition, the Kd in [20] (setting [37]), in experiment [21] (setting [37]) and in experiment [22] (setting [37]) was at least 20 µM each time.
As to GIVSSMHYK, the Kd in experiment [5] (setting [35]), in experiment [25] (setting [35]), in experiment [6] (setting [35]), in experiment [26] (setting [35]), in experiment [8] (setting [35]) and in experiment [9] (setting [35]) was at least 20 µM throughout. The Kd in [10] (setting [35]), in experiment [11] (setting [35]), in [32], in experiment [27] (setting [35]), in experiment [12] (setting [35]) and in experiment [13] (setting [35]) was at least 20 µM each time. Also, the Kd in experiment [14] (setting [35]) was at least 20 µM; in experiment [15] (source organism: Sudan ebolavirus - Maleo (1979)), 1.38 µM; in [16] (setting [35]), at least 20 µM; in [30] (setting [35]), at least 20 µM; in [17] (setting [35]) it was at least 20 µM; in experiment [18] (setting [35]), at least 20 µM. In addition, the Kd in experiment [19] (setting [35]), in [20] (setting [35]), in experiment [21] (setting [35]) and in [22] (setting [35]) was at least 20 µM throughout.
For NPVDGSIWY, the Kd in [4] (setting [38]), in [23] (setting [38]) and in experiment [24] (source organism: Burkholderia mallei ATCC 23344) was at least 20 µM each time.
For LVRDITESL, the Kd in experiment [5] (setting [39]), in experiment [25] (setting [39]), in [6] (setting [39]), in experiment [9] (setting [39]), in experiment [11] (setting [39]) and in [27] (setting [39]) was at least 20 µM throughout. In addition, the Kd was at least 20 µM in [13] (setting [39]); at least 20 µM in [14] (setting [40]); at least 20 µM in experiment [15] (setting [40]); at least 20 µM in experiment [30] (setting [40]); 0.0392 µM in experiment [23] (setting [39]); at least 20 µM in [18] (setting [40]). Further, the Kd in experiment [19] (setting [40]), in experiment [20] (setting [40]) and in experiment [22] (setting [40]) was at least 20 µM each time.
